According to patent US20220177587A1, “METHODS AND USES OF VARIANT CD80 FUSION PROTEINS AND RELATED CONSTRUCTS” (Alpine Immune Sciences, Inc., priority 2018, published 2022):
Each block holds one substance with its values, some of them ahead of it.

Tests used:
CD28 (human) [1] = target: CD28 (human) (UniProt P10747); assay: flow cytometry, Jurkat/IL2 reporter cells (CD28)
CD28 (human) [2] = target: CD28 (human) (UniProt P10747); assay: flow cytometry, Jurkat cells (CD28)
PD-L1 (human) [3] = target: PD-L1 (human) (UniProt Q9NZQ7); assay: flow cytometry, CHO cells expressing PD-L1
Chain of PD-L1 (human) (Q9NZQ7 19-290): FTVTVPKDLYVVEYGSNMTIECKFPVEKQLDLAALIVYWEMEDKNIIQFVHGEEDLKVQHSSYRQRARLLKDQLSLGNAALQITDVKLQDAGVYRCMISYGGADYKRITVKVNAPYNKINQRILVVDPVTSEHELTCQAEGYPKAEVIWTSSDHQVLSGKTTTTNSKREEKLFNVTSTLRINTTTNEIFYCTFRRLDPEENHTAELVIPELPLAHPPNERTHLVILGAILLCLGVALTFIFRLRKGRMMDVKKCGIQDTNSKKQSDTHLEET

human CTLA-4 (human) [4] = target: human CTLA-4 (human) (UniProt P16410); assay: flow cytometry, CHO cells expressing CTLA4
Chain of human CTLA-4 (human) (P16410 36-223): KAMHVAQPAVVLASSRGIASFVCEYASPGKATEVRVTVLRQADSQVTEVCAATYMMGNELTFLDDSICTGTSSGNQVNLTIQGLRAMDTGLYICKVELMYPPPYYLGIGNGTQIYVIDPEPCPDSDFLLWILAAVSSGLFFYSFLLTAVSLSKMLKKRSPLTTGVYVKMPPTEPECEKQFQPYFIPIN

PD-L1 (human) [5] = target: PD-L1 (human) (UniProt Q9NZQ7); assay: flow cytometry, MFI on PD-L1 over MFI on CD28
human CTLA-4 (human) [6] = target: human CTLA-4 (human) (UniProt P16410); assay: flow cytometry, CHO cells expressing huCTLA4
PD-L1 (human) [7] = target: PD-L1 (human) (UniProt Q9NZQ7); assay: flow cytometry, CHO cells expressing huPD-L1
PD-L1 (human) [8] = target: PD-L1 (human) (UniProt Q9NZQ7)
CD28 (human) [9] = target: CD28 (human) (UniProt P10747)
CD28 (human) [10] = target: CD28 (human) (UniProt P10747); remark: listed apart in the source
CD28 (human) [11] = target: CD28 (human) (UniProt P10747); assay: flow cytometry, Jurkat/IL2 reporter cells (endogenous CD28)
human CTLA-4 (human) [12] = target: human CTLA-4 (human) (UniProt P16410); assay: flow cytometry, CHO cells expressing huCTLA-4
PD-L1 (human) [13] = target: PD-L1 (human) (UniProt Q9NZQ7); assay: flow cytometry, CHO cells expressing huPD-L1; remark: listed apart in the source
PD-L1 (human) [14] = target: PD-L1 (human) (UniProt Q9NZQ7); assay: flow cytometry, CHO/huPD-L1 cells; vs WT CD80 ECD-Fc (Abcam)
CD28 (human) [15] = target: CD28 (human) (UniProt P10747); assay: flow cytometry, Jurkat/IL2 reporter cells (CD28); remark: listed apart in the source
PD-L1 (human) [16] = target: PD-L1 (human) (UniProt Q9NZQ7); assay: flow cytometry, CHO cells expressing huPD-L1; remark: listed apart in the source
CD28 (human) [17] = target: CD28 (human) (UniProt P10747); assay: flow cytometry, Jurkat cells (CD28); remark: listed apart in the source
human CTLA-4 (human) [18] = target: human CTLA-4 (human) (UniProt P16410); assay: flow cytometry, CHO cells stably expressing CTLA4
human CTLA-4 (human) [19] = target: human CTLA-4 (human) (UniProt P16410); assay: flow cytometry, CHO/CTLA4 cells; MFI over CD80 WT IgV-Fc
PD-L1 (human) [20] = target: PD-L1 (human) (UniProt Q9NZQ7); assay: flow cytometry, CHO/PD-L1 cells; MFI over CD80 WT IgV-Fc
PD-L1 (human) [21] = target: PD-L1 (human) (UniProt Q9NZQ7); assay: flow cytometry, CHO cells stably expressing PD-L1
CD28 (human) [22] = target: CD28 (human) (UniProt P10747); assay: flow cytometry, Jurkat cells (CD28); MFI over CD80 WT IgV-Fc
human CTLA-4 (human) [23] = target: human CTLA-4 (human) (UniProt P16410); assay: flow cytometry, CHO cells stably expressing CTLA4; remark: listed apart in the source

Substance: variant CD80 IgV-Fc Q27H/E35D/D46V/M47L/A71G (Fc fusion)
- MFI at 33.3 nM (CD28 (human) [1]): 10400 MFI

Substance: variant CD80 IgV-Fc V22L/M38V/M47T/A71D/L85M (Fc fusion)
- Fold increase in IL2 reporter signal (Jurkat/IL2 reporter assay) (fold vs WT CD80 IgV-Fc) (CD28 (human) [10]): 0.43

Substance: CD80 IgV-Fc E35D/D46E/M47I/V68M/L85M (Fc fusion)
- RLU at 5.0 nM: Fold Increase over WT CD80-IgV-Fc (PD-L1 (human) [8]): 3.1 fold
- RLU at 5.0 nM: Fold Increase over WT CD80-IgV-Fc (CD28 (human) [9]): 3.1 fold

Substance: variant CD80 IgV-Fc E35D/M47V/T62A/A71G/V83A/Y87H/L97M (Fc fusion)
- MFI at 33.3 nM (human CTLA-4 (human) [6]): 18100 MFI
- MFI at 33.3 nM (CD28 (human) [11]): 305 MFI
- MFI at 33.3 nM (PD-L1 (human) [7]): 77500 MFI

Substance: variant CD80 IgV-Fc D46V/V68M (Fc fusion)
- MFI at 33.3 nM (human CTLA-4 (human) [12]): 5330 MFI
- MFI at 33.3 nM (PD-L1 (human) [13]): 2270 MFI
- Fold change to WT CD80 (PD-L1 (human) [14]): 17.7 fold
- MFI at 33.3 nM (CD28 (human) [15]): 556 MFI

Substance: CD80 IgV-Fc T13R/Q33L/E35D/M47V/T62S/V68M/L85M (Fc fusion)
- RLU at 5.0 nM: Fold Increase over WT CD80-IgV-Fc (PD-L1 (human) [8]): 0.3 fold
- RLU at 5.0 nM: Fold Increase over WT CD80-IgV-Fc (CD28 (human) [9]): 0.3 fold

Substance: variant CD80 IgV-Fc Q33L/E35D/M43I/Y53F/T62S/L85Q (Fc fusion)
- MFI at 33.3 nM (CD28 (human) [1]): 1024 MFI
- MFI at 33.3 nM (PD-L1 (human) [16]): 72100 MFI

Substance: CD80 IgV-Fc V22D/E24D/E35D/M47L/V68M (Fc fusion)
- RLU at 5.0 nM: Fold Increase over WT CD80-IgV-Fc (PD-L1 (human) [8]): 2.4 fold
- RLU at 5.0 nM: Fold Increase over WT CD80-IgV-Fc (CD28 (human) [9]): 2.4 fold

Substance: CD80 H18Y/E35D/D46E/M47I/V68M/R94L IgV-Fc (Fc fusion)
- Fold change to WT CD80 (CD28 (human) [2]): 7.8 fold
- MFI at 33.3 nM (CD28 (human) [2]): 244 MFI
- Fold change to WT CD80 (PD-L1 (human) [3]): 365 fold
- MFI at 33.3 nM (PD-L1 (human) [3]): 18800 MFI
- Fold change to WT CD80 (human CTLA-4 (human) [4]): 13.3 fold
- MFI at 33.3 nM (human CTLA-4 (human) [4]): 23300 MFI
- Ratio of PDL1:CD28 (PD-L1 (human) [5]): 77.1

Results, then the substance that gave them:

- Fold change to WT CD80 (CD28 (human) [2]): 0.5 fold
- MFI at 33.3 nM (CD28 (human) [2]): 14.2 MFI
- Fold change to WT CD80 (PD-L1 (human) [3]): 21.5 fold
- MFI at 33.3 nM (PD-L1 (human) [3]): 1110 MFI
- Fold change to WT CD80 (human CTLA-4 (human) [4]): 12.6 fold
- MFI at 33.3 nM (human CTLA-4 (human) [4]): 22000 MFI
- Ratio of PDL1:CD28 (PD-L1 (human) [5]): 77.9
Substance: CD80 T13R/Q33R/E35D/M38I/M47L/V68M/L85M IgV-Fc (Fc fusion)

- MFI at 33.3 nM (human CTLA-4 (human) [6]): 311000 MFI
- MFI at 33.3 nM (PD-L1 (human) [7]): 67100 MFI
Substance: variant CD80 IgV-Fc E24D/Q33L/E35D/M47V/K54R/L85Q (Fc fusion)

- RLU at 5.0 nM: Fold Increase over WT CD80-IgV-Fc (PD-L1 (human) [8]): 2.4 fold
- RLU at 5.0 nM: Fold Increase over WT CD80-IgV-Fc (CD28 (human) [9]): 2.4 fold
Substance: CD80 IgV-Fc E35D/M47I/V68M/Y87N (Fc fusion)

- Fold increase in IL2 reporter signal (Jurkat/IL2 reporter assay) (fold vs WT CD80 IgV-Fc) (CD28 (human) [10]): 0.36
Substance: variant CD80 IgV-Fc E35D/A71D (SEQ ID NO 176) (Fc fusion)

- Fold increase in IL2 reporter signal (Jurkat/IL2 reporter assay) (fold vs WT CD80 IgV-Fc) (CD28 (human) [10]): 0.2
Substance: variant CD80 IgV-Fc E35D/A71D (SEQ ID NO 194) (Fc fusion)

- MFI at 33.3 nM (human CTLA-4 (human) [6]): 28900 MFI
- MFI at 33.3 nM (PD-L1 (human) [7]): 62100 MFI
Substance: variant CD80 IgV-Fc Q33L/E35D/M47V/T79A (Fc fusion)

- Fold change to WT CD80 (CD28 (human) [2]): 8.2 fold
- MFI at 33.3 nM (CD28 (human) [2]): 257 MFI
- Fold change to WT CD80 (PD-L1 (human) [3]): 250 fold
- MFI at 33.3 nM (PD-L1 (human) [3]): 12900 MFI
- Fold change to WT CD80 (human CTLA-4 (human) [4]): 9 fold
- MFI at 33.3 nM (human CTLA-4 (human) [4]): 15800 MFI
- Ratio of PDL1:CD28 (PD-L1 (human) [5]): 50.1
Substance: CD80 H18Y/V22D/E35D/M47V/N48K/V68M IgV-Fc (Fc fusion)

- Fold change to WT CD80 (CD28 (human) [2]): 0.5 fold
- MFI at 33.3 nM (CD28 (human) [2]): 15 MFI
- Fold change to WT CD80 (PD-L1 (human) [3]): 362 fold
- MFI at 33.3 nM (PD-L1 (human) [3]): 18600 MFI
- Fold change to WT CD80 (human CTLA-4 (human) [4]): 8.8 fold
- MFI at 33.3 nM (human CTLA-4 (human) [4]): 15500 MFI
- Ratio of PDL1:CD28 (PD-L1 (human) [5]): 1270
Substance: CD80 E24D/E35D/M47L/V68M/E95V/L97Q IgV-Fc (Fc fusion)

- MFI at 33.3 nM (CD28 (human) [1]): 2160 MFI
- MFI at 33.3 nM (human CTLA-4 (human) [6]): 341000 MFI
- MFI at 33.3 nM (CD28 (human) [17]): 236 MFI
- MFI at 33.3 nM (human CTLA-4 (human) [18]): 20600 MFI
- MFI at 33.3 nM (PD-L1 (human) [16]): 53400 MFI
Substance: variant CD80 IgV-Fc A26E/E35D/M47L/A71G (Fc fusion)

- MFI at 33.3 nM (CD28 (human) [2]): 8060 MFI
- Fold change to WT CD80 (human CTLA-4 (human) [19]): 18 fold
- Fold change to WT CD80 (PD-L1 (human) [20]): 448 fold
- MFI at 33.3 nM (PD-L1 (human) [21]): 73900 MFI
- Fold change to WT CD80 (CD28 (human) [22]): 79 fold
- MFI at 33.3 nM (human CTLA-4 (human) [23]): 24900 MFI
Substance: variant CD80 IgV-Fc (inert) H18V/A26S/E35D/M47L/V68M/A71G/D90G (Fc fusion)
